The values below are quoted from earlier work in publication PMC6719960.

What is called Kd is a measure of binding affinity in units of concentration.

The target in the data set is claudin-4 (UniProt O14493).
Chain of UniProt O14493 (O14493 whole entry): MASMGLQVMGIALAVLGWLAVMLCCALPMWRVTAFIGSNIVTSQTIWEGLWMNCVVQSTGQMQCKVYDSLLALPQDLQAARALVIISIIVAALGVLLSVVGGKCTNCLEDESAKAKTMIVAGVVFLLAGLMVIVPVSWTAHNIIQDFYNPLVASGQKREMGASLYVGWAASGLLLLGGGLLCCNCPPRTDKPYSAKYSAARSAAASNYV

With “C-CPE C-terminal fragment (from UniProt P01558)”, the Kd was 0.5 nM.
